Results on one molecule are retold here after patent US20050089961A1 (NEUROMED PHARMACEUTICALS, published 2005).

In the assay the target is rat α1B+β1b calcium channel (N-type calcium channel) (rat, UniProt Q02294 1-2336; P54283 1-597). The experiment in a line: cell-based or functional assay.
Sequence of rat α1B+β1b calcium channel (N-type calcium channel) (Q02294 whole entry, chain 1 of 2): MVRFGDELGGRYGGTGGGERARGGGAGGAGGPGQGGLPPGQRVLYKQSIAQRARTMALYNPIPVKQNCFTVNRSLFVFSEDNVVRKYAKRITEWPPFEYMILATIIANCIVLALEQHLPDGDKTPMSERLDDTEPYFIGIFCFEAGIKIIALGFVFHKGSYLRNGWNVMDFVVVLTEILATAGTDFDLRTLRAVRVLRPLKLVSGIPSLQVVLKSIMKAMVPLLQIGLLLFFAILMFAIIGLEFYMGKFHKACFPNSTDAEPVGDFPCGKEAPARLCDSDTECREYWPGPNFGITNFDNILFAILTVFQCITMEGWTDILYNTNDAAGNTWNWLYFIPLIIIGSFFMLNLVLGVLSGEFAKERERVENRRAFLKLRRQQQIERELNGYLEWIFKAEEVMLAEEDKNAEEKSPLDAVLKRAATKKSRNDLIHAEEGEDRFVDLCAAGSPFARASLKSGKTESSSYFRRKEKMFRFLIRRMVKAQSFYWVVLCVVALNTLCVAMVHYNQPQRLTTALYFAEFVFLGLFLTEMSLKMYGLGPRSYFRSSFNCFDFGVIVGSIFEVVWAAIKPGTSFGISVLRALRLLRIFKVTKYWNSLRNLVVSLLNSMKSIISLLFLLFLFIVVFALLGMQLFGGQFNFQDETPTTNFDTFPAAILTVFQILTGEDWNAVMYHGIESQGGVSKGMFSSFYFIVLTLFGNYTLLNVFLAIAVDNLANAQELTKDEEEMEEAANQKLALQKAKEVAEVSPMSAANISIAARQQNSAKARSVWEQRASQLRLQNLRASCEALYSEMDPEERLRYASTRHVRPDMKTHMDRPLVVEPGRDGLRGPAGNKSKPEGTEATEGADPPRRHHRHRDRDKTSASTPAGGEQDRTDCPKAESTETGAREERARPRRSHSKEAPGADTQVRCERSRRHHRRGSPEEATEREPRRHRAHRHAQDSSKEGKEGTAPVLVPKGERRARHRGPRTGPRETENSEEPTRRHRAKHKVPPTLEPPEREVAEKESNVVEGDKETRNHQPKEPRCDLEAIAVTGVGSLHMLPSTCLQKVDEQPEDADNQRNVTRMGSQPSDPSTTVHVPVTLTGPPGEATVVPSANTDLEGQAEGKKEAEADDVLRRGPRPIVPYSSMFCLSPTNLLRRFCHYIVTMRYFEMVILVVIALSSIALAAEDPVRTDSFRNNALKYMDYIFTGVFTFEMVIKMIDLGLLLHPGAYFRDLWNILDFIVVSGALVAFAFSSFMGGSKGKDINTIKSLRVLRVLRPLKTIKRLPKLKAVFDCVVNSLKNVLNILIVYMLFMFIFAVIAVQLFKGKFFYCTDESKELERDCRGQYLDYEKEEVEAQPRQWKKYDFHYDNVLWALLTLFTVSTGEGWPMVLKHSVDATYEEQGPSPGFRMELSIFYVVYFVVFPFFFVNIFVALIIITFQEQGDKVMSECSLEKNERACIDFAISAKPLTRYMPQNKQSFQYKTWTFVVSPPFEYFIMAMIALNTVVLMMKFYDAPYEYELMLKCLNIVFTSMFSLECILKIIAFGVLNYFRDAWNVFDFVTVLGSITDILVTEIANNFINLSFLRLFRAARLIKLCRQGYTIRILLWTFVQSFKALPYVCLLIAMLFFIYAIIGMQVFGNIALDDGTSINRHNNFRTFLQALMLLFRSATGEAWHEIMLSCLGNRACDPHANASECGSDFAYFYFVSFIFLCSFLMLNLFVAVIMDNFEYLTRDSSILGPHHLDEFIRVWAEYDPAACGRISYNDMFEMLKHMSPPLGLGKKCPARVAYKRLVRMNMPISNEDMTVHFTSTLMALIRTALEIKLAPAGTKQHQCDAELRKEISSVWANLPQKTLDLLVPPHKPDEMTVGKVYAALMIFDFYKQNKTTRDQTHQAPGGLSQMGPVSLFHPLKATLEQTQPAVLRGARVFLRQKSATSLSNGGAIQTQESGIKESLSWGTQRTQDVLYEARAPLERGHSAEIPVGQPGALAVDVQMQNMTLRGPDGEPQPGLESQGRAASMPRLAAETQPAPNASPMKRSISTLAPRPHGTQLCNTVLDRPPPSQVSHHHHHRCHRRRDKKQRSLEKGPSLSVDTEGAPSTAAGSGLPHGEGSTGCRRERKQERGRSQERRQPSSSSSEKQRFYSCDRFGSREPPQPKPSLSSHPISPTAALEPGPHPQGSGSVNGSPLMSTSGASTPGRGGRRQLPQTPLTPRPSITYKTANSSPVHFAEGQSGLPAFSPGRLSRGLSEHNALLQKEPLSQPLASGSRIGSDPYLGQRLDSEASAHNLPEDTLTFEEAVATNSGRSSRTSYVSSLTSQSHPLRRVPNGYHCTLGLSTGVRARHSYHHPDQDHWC
Sequence of rat α1B+β1b calcium channel (N-type calcium channel) (P54283 whole entry, chain 2 of 2): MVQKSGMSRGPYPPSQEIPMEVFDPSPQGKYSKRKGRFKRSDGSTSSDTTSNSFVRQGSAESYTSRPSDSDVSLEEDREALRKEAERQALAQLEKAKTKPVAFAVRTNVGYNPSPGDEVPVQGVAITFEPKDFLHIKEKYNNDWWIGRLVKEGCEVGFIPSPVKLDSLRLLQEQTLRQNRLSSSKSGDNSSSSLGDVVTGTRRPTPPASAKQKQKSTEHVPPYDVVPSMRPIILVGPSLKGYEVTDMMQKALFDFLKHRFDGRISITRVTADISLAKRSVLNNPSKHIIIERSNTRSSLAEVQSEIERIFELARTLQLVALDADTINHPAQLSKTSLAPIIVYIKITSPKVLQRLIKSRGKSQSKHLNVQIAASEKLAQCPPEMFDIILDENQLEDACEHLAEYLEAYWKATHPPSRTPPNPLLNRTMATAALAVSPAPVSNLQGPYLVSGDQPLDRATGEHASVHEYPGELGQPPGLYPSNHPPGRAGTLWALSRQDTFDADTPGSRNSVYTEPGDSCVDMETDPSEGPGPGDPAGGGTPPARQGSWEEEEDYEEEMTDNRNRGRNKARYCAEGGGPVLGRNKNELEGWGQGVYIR

B1: full-length chicken α2δ-1 calcium channel subunit (other)
chain: HSSEGPFPSPTTIKSWVDKMQEDLITLARTASGVEQLAAIYLKNKDLYTVEANNPRQLVEIAARDIEKLLSNRSKALVRLAKEAEKYQASHQWRDEFGNNDIIYYNAKDDQNDPEKNDTESGSQRIRPVFEEDPVFRRQTSYQHAAVHIPTDIYEGSTIVLNELNWTAALDDVFKRNREEDPTLLWQVFGSATGLARYYPASPWVDNSRTPNKIDLYDVRRRPWYIQGAASPKDMLILVDASGSVSGLTLKLIRTSVIEMLETLSDDDFVNVVSFNNNAQNVSCFNHLVQANVRNKKKLKEAVDKISAKGITDYKKGFSYAFEQLLNHSVSRANCNKIIMLFTDGGEERAQEIFHKYNEDKKVRVFTFSVGQHNYDKGPIQWMACENKGYYYEIPSIGAIRINTQEYLDVLGRPMVLAGEKAKQVQWTNVYLDALELGLVITGTLPVFNLTKEQNGKINQLILGVMGVDVSLEDIKKLTPRFTLCPNGYYFAIDPNGYVLLHPNLQPKNPKSQEPVTLDFLDAELENDIKVEIRKKMIDGESGEKTFETLVKSQDERYIDKGNRTYTWTAVNGTDYSLALVLPSYSFYYIKAKIEEPITQARLEIKKDSETLKIDHFDEAGYTFIAPREYCTDVKKSENNTEFLLNFNEFIDRNTPSSPSCNTDMVIRVLLDAGFTNELAQNYWSKLYLDGVVAQFVVTDGGITRVFPKRAGEDWLENAETYEVSFYKRSLDNDNYIFTAPYYNKSGANSYESGIMVSKAVEITINGKLLKPAVVGIKIDAMKWMENFTTTTIKSLCNSEICGCEKNSMHVDCVILDDGGFLLMSNRDEYTHQIGRFFGEIDPGLMRNLINMSLYAFNKSYDYQSVCDPEEEPKQGAGLRSAYVPTIADILQLGWWASAAAWSILQQLFLSLTFPRFLEAADMEDDDFSTALPKTSCITEQTQYFFENDDKSFIGIVDCINCSRLYHAEKISNTNLVFIISDSQLLCRSCDPKPLMQAEKPDEGPNPCEMVKQPRYRKGPDVCFDEAKQEDSADCGGASGLSPSLWSMVGIQLVLLWLLSGSRHYQL
As for B1, the “current density (Ipeak/cell capacitance), whole-cell patch clamp, fold increase on coexpression” value is roughly 10 fold.
